Experiment [1] deals with T1, human glucose-dependent insulinotropic polypeptide (GIP) receptor (human, UniProt P48546 22-466).
T1 construct: whole, on cells; Assayed as crude membranes of stably transfected CHO cells; also called hGIPR; human GIP receptor
T1 sequence (looked up): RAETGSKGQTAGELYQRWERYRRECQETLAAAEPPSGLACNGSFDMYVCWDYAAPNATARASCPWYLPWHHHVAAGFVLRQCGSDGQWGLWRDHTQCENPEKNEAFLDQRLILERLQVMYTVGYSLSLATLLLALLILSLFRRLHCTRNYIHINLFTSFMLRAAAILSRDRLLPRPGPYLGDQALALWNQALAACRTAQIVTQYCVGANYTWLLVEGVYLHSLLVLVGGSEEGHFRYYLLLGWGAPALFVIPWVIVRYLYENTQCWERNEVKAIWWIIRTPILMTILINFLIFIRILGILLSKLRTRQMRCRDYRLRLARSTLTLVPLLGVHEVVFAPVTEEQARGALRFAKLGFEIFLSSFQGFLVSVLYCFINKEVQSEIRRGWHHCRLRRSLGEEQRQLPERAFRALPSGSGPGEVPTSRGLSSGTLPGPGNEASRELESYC
Put plainly: SPA, displacement of [125I]-GIP from hGIPR membranes, 0.1% bacitracin. The method, then: The binding buffer contains 25 mM HEPES, pH 7.4, 2.5 mM CaCl₂, 1 mM MgCl₂, 0.1% (w/v) bacitracin, 0.003% (w/v) TWEEN®-20, and Roche Complete™ Protease Inhibitors without EDTA. […] Plates are sealed and mixed on a plate shaker (setting 6) for 1 minute and read with a PerkinElmer Trilux MicroBeta® scintillation counter after 2.5 to 12 hours of incubation/settling time at room temperature.
(§1) Data are analyzed using four-parameter (curve maximum, curve minimum, […], Hill slope) nonlinear regression routines (Genedata Screener, version 12.0.4, Genedata AG, Basal, Switzerland). […] Values for Kᵢ are reported as the geometric mean, with error expressed as the standard error of the mean (SEM) and n is equal to the number of independent replicates (determined in assays performed on different days). Geometric Means are calculated as follows: […]
A general note: Loss of bound radioactivity is the signal in a displacement assay; it reports binding, not function.

The target of experiment [2] is T2, human GLP-1 receptor (human, UniProt P43220 24-463).
T2 construct: whole, on cells; Assayed as crude membranes of stably transfected HEK293 cells; also called hGLP1R; hGLP-1R
Put plainly: SPA, displacement of [125I]-GLP-1 from hGLP-1R membranes, 0.1% bacitracin. As for the experimental part: The binding buffer contains 25 mM HEPES, pH 7.4, 2.5 mM CaCl₂, 1 mM MgCl₂, 0.1% (w/v) bacitracin, 0.003% (w/v) TWEEN®-20, and Roche Complete™ Protease Inhibitors without EDTA.
as §1

Results on five molecules are retold here after patent US20210032299A1 (Eli Lilly, published 2021).

Starred links: 1 amine or outer side, 2 acyl side, 3 side chain; linkers in the order of their positions; H or OH if unused. Non-standard residues stand in square brackets, D forms with d. Groups on a side chain read outwards from the residue. No end group written: not given here. *: point of attachment. C20 diacid = O=C(O)CCCCCCCCCCCCCCCCCCC(=O)*; C18 diacid = O=C(O)CCCCCCCCCCCCCCCCC(=O)*; γGlu = O=C(O)[C@H](CCC(=O)[*:2])N[*:1]; 4Pal = N[C@@H](Cc1ccncc1)C(=O)O; αMeL = CC(C)C[C@](C)(N)C(=O)O; AEEA = NCCOCCOCC(=O)O; Aib = CC(C)(N)C(=O)O

B1: Example 22 (peptide)
peptide: Y[Aib]EGTFISDYSILLDKK([AEEA-AEEA-γGlu-C18 diacid])HQ[Aib]DFVE[4Pal]LLAGGPSSGAPPPS-NH2
modifications: N-terminus assumed
SMILES: CC[C@H](C)[C@H](NC(=O)[C@H](CO)NC(=O)[C@H](Cc1ccc(O)cc1)NC(=O)[C@H](CC(=O)O)NC(=O)[C@H](CO)NC(=O)[C@@H](NC(=O)[C@H](Cc1ccccc1)NC(=O)[C@@H](NC(=O)CNC(=O)[C@H](CCC(=O)O)NC(=O)C(C)(C)NC(=O)[C@@H](N)Cc1ccc(O)cc1)[C@@H](C)O)[C@@H](C)CC)C(=O)N[C@@H](CC(C)C)C(=O)N[C@@H](CC(C)C)C(=O)N[C@@H](CC(=O)O)C(=O)N[C@@H](CCCCN)C(=O)N[C@@H](CCCCNC(=O)COCCOCCNC(=O)COCCOCCNC(=O)CC[C@H](NC(=O)CCCCCCCCCCCCCCCCC(=O)O)C(=O)O)C(=O)N[C@@H](Cc1c[nH]cn1)C(=O)N[C@@H](CCC(N)=O)C(=O)NC(C)(C)C(=O)N[C@@H](CC(=O)O)C(=O)N[C@@H](Cc1ccccc1)C(=O)N[C@H](C(=O)N[C@@H](CCC(=O)O)C(=O)N[C@@H](Cc1ccncc1)C(=O)N[C@@H](CC(C)C)C(=O)N[C@@H](CC(C)C)C(=O)N[C@@H](C)C(=O)NCC(=O)NCC(=O)N1CCC[C@H]1C(=O)N[C@@H](CO)C(=O)N[C@@H](CO)C(=O)NCC(=O)N[C@@H](C)C(=O)N1CCC[C@H]1C(=O)N1CCC[C@H]1C(=O)N1CCC[C@H]1C(=O)N[C@@H](CO)C(N)=O)C(C)C
As for B1, the results for the inhibition constant (Ki) in experiment [1] and in experiment [2] were 0.219 nM and 388 nM, respectively.

B2: Example 21 (peptide)
peptide: Y[Aib]EGTFISDYSIALDKK([AEEA-AEEA-γGlu-C18 diacid])HQ[Aib]DFVE[4Pal]LLAGGPSSGAPPPS-NH2
modifications: N-terminus assumed
SMILES: CC[C@H](C)[C@H](NC(=O)[C@H](CO)NC(=O)[C@H](Cc1ccc(O)cc1)NC(=O)[C@H](CC(=O)O)NC(=O)[C@H](CO)NC(=O)[C@@H](NC(=O)[C@H](Cc1ccccc1)NC(=O)[C@@H](NC(=O)CNC(=O)[C@H](CCC(=O)O)NC(=O)C(C)(C)NC(=O)[C@@H](N)Cc1ccc(O)cc1)[C@@H](C)O)[C@@H](C)CC)C(=O)N[C@@H](C)C(=O)N[C@@H](CC(C)C)C(=O)N[C@@H](CC(=O)O)C(=O)N[C@@H](CCCCN)C(=O)N[C@@H](CCCCNC(=O)COCCOCCNC(=O)COCCOCCNC(=O)CC[C@H](NC(=O)CCCCCCCCCCCCCCCCC(=O)O)C(=O)O)C(=O)N[C@@H](Cc1c[nH]cn1)C(=O)N[C@@H](CCC(N)=O)C(=O)NC(C)(C)C(=O)N[C@@H](CC(=O)O)C(=O)N[C@@H](Cc1ccccc1)C(=O)N[C@H](C(=O)N[C@@H](CCC(=O)O)C(=O)N[C@@H](Cc1ccncc1)C(=O)N[C@@H](CC(C)C)C(=O)N[C@@H](CC(C)C)C(=O)N[C@@H](C)C(=O)NCC(=O)NCC(=O)N1CCC[C@H]1C(=O)N[C@@H](CO)C(=O)N[C@@H](CO)C(=O)NCC(=O)N[C@@H](C)C(=O)N1CCC[C@H]1C(=O)N1CCC[C@H]1C(=O)N1CCC[C@H]1C(=O)N[C@@H](CO)C(N)=O)C(C)C
B2: the Ki (commonly a measure of affinity in units of concentration, obtained from inhibition or displacement) came out at 1.46 nM in experiment [1] and 801 nM in experiment [2].

B3: Example 83 (peptide)
peptide: Y[Aib]EGTFISDYSI[αMeL]LDEK([AEEA-AEEA-γGlu-C20 diacid])HQ[Aib]DFVE[4Pal]LLATGPSSGAPPPS-NH2
modifications: N-terminus assumed
SMILES: CC[C@H](C)[C@H](NC(=O)[C@H](Cc1ccccc1)NC(=O)[C@@H](NC(=O)CNC(=O)[C@H](CCC(=O)O)NC(=O)C(C)(C)NC(=O)[C@@H](N)Cc1ccc(O)cc1)[C@@H](C)O)C(=O)N[C@@H](CO)C(=O)N[C@@H](CC(=O)O)C(=O)N[C@@H](Cc1ccc(O)cc1)C(=O)N[C@@H](CO)C(=O)N[C@H](C(=O)N[C@@](C)(CC(C)C)C(=O)N[C@@H](CC(C)C)C(=O)N[C@@H](CC(=O)O)C(=O)N[C@@H](CCC(=O)O)C(=O)N[C@@H](CCCCNC(=O)COCCOCCNC(=O)COCCOCCNC(=O)CC[C@H](NC(=O)CCCCCCCCCCCCCCCCCCC(=O)O)C(=O)O)C(=O)N[C@@H](Cc1c[nH]cn1)C(=O)N[C@@H](CCC(N)=O)C(=O)NC(C)(C)C(=O)N[C@@H](CC(=O)O)C(=O)N[C@@H](Cc1ccccc1)C(=O)N[C@H](C(=O)N[C@@H](CCC(=O)O)C(=O)N[C@@H](Cc1ccncc1)C(=O)N[C@@H](CC(C)C)C(=O)N[C@@H](CC(C)C)C(=O)N[C@@H](C)C(=O)N[C@H](C(=O)NCC(=O)N1CCC[C@H]1C(=O)N[C@@H](CO)C(=O)N[C@@H](CO)C(=O)NCC(=O)N[C@@H](C)C(=O)N1CCC[C@H]1C(=O)N1CCC[C@H]1C(=O)N1CCC[C@H]1C(=O)N[C@@H](CO)C(N)=O)[C@@H](C)O)C(C)C)[C@@H](C)CC
B3: the inhibition constant (Ki) in experiment [1] came out at 0.116 nM; in experiment [2] it was 452 nM.

B4: Example 84 (peptide)
peptide: Y[Aib]EGTFISDYSI[αMeL]LDEK([AEEA-AEEA-γGlu-C20 diacid])HQ[Aib]DFVE[4Pal]LLAQGPSSGAPPPS-NH2
modifications: N-terminus assumed
SMILES: CC[C@H](C)[C@H](NC(=O)[C@H](Cc1ccccc1)NC(=O)[C@@H](NC(=O)CNC(=O)[C@H](CCC(=O)O)NC(=O)C(C)(C)NC(=O)[C@@H](N)Cc1ccc(O)cc1)[C@@H](C)O)C(=O)N[C@@H](CO)C(=O)N[C@@H](CC(=O)O)C(=O)N[C@@H](Cc1ccc(O)cc1)C(=O)N[C@@H](CO)C(=O)N[C@H](C(=O)N[C@@](C)(CC(C)C)C(=O)N[C@@H](CC(C)C)C(=O)N[C@@H](CC(=O)O)C(=O)N[C@@H](CCC(=O)O)C(=O)N[C@@H](CCCCNC(=O)COCCOCCNC(=O)COCCOCCNC(=O)CC[C@H](NC(=O)CCCCCCCCCCCCCCCCCCC(=O)O)C(=O)O)C(=O)N[C@@H](Cc1c[nH]cn1)C(=O)N[C@@H](CCC(N)=O)C(=O)NC(C)(C)C(=O)N[C@@H](CC(=O)O)C(=O)N[C@@H](Cc1ccccc1)C(=O)N[C@H](C(=O)N[C@@H](CCC(=O)O)C(=O)N[C@@H](Cc1ccncc1)C(=O)N[C@@H](CC(C)C)C(=O)N[C@@H](CC(C)C)C(=O)N[C@@H](C)C(=O)N[C@@H](CCC(N)=O)C(=O)NCC(=O)N1CCC[C@H]1C(=O)N[C@@H](CO)C(=O)N[C@@H](CO)C(=O)NCC(=O)N[C@@H](C)C(=O)N1CCC[C@H]1C(=O)N1CCC[C@H]1C(=O)N1CCC[C@H]1C(=O)N[C@@H](CO)C(N)=O)C(C)C)[C@@H](C)CC
Regarding B4, the results for the inhibition constant (Ki) in experiment [1] and in experiment [2] were 0.0584 nM and 325 nM, respectively.

B5: Example 10 (peptide)
peptide: Y[dA]EGTFISDYSILLDKK([AEEA-AEEA-γGlu-C20 diacid])HQQDFVNWLLAGGPSSGAPPPS-NH2
modifications: N-terminus assumed
SMILES: CC[C@H](C)[C@H](NC(=O)[C@H](CO)NC(=O)[C@H](Cc1ccc(O)cc1)NC(=O)[C@H](CC(=O)O)NC(=O)[C@H](CO)NC(=O)[C@@H](NC(=O)[C@H](Cc1ccccc1)NC(=O)[C@@H](NC(=O)CNC(=O)[C@H](CCC(=O)O)NC(=O)[C@@H](C)NC(=O)[C@@H](N)Cc1ccc(O)cc1)[C@@H](C)O)[C@@H](C)CC)C(=O)N[C@@H](CC(C)C)C(=O)N[C@@H](CC(C)C)C(=O)N[C@@H](CC(=O)O)C(=O)N[C@@H](CCCCN)C(=O)N[C@@H](CCCCNC(=O)COCCOCCNC(=O)COCCOCCNC(=O)CC[C@H](NC(=O)CCCCCCCCCCCCCCCCCCC(=O)O)C(=O)O)C(=O)N[C@@H](Cc1c[nH]cn1)C(=O)N[C@@H](CCC(N)=O)C(=O)N[C@@H](CCC(N)=O)C(=O)N[C@@H](CC(=O)O)C(=O)N[C@@H](Cc1ccccc1)C(=O)N[C@H](C(=O)N[C@@H](CC(N)=O)C(=O)N[C@@H](Cc1c[nH]c2ccccc12)C(=O)N[C@@H](CC(C)C)C(=O)N[C@@H](CC(C)C)C(=O)N[C@@H](C)C(=O)NCC(=O)NCC(=O)N1CCC[C@H]1C(=O)N[C@@H](CO)C(=O)N[C@@H](CO)C(=O)NCC(=O)N[C@@H](C)C(=O)N1CCC[C@H]1C(=O)N1CCC[C@H]1C(=O)N1CCC[C@H]1C(=O)N[C@@H](CO)C(N)=O)C(C)C
As for B5, the Ki in experiment [1] worked out at 0.159 nM; in experiment [2], 60.7 nM.
